The chains are these.
T1: CAPRIN-1 protein on the cell surface of human cancer cell lines (human, UniProt Q14444 2-709)
T1 sequence (looked up): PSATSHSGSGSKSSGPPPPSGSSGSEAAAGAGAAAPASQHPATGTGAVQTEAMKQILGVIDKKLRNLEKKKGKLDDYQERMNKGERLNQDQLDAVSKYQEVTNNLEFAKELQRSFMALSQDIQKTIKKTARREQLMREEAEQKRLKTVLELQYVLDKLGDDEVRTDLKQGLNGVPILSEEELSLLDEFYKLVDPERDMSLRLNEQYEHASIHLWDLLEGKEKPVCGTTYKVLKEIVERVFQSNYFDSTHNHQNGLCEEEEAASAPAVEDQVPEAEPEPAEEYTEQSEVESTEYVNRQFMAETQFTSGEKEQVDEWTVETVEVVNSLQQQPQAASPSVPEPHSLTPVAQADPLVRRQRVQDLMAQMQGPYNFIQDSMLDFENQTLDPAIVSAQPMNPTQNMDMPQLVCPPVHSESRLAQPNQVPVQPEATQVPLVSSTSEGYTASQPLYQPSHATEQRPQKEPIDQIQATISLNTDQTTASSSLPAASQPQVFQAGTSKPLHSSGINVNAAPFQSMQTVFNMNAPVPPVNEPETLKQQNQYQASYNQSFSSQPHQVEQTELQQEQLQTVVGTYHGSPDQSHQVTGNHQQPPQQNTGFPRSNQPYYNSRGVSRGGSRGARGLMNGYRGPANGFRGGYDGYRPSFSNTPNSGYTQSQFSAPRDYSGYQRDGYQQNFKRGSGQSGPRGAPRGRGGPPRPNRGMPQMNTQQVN

B1: human-mouse chimeric comparative monoclonal antibody 1 (antibody)
heavy: not shown
light: DIQMTQSPASLSASVGETVTITCRASGNIHNYLAWYQQKQGKSPQLLVYNAKTLADGVPSRFSGSGSGTQYSLKINSLQPEDFGSYYCQHFWSTLTFGAGTKLELKRTVAAPSVFIFPPSDEQLKSGTASVVCLLNNFYPREAKVQWKVDNALQSGNSQESVTEQDSKDSTYSLSSTLTLSKADYEKHKVYACEVTHQGLSSPVTKSFNRGEC
B2: human-mouse chimeric comparative monoclonal antibody 4 (antibody, human IgG1, kappa, V domains shown)
VH: EVQLHQFGAELVKPGASVKISCKASGYTFTDYNMDWVKQSHGKSLEWIGDINPNYDSTSYNQKFKGKATLTVDKSSSTAYMELRSLTSEDTAVYYCARSRSYDYEGFAYWGQGTLVTVSA
VL: SGDRVSLSCRASQSISNYLHWYQQKSHESPRLLIKYASQSISGIPSRFSGSGSGTDFTLSINSVETEDFGMYFCQQSNSWPYTFGAGTKLEIKQ
B3: human-mouse chimeric comparative monoclonal antibody 7 (antibody, human IgG1, kappa, V domains shown)
VH: LQESGAELARPGASVKLSCKASGYTFTSYWMQWVKQRPGQGLEWIGAIYPGDGDTRYTQKFKGKATLTADKSSSTAYMQLSSLASEDSAVYYCARGEYGNYFAYWGQGTTVTVSS
VL: TSDASLGERVTITCKASQDINSYLSWFQQKPGKSPKTLIYRANRLVDGVPSRFSGSGSGQDYSLTISSLEYEDMGIYYCLQYDEFPLTFGGGTKLEIKQ
B4: human-mouse chimeric comparative monoclonal antibody 3 (antibody, human IgG1, kappa)
heavy: not shown
light: RTTSHMDSDIQLTQSPASLSASVGETVTITCRASGNIHNYLAWYQQKQGKSPQLLVYNAKTLADGVPSRFSGSGSGTQYSLKINSLQPEDFGSYYCQHFWSTLTFGGGTKLEIKQSDTVAAPSVFIFPPSDEQLKSGTASVVCLLNNFYPREAKVQWKVDNALQSGNSQESVTEQDSKDSTYSLSSTLTLSKADYEKHKVYACEVTHQGLSSPVTKSFNRGEC

In this experiment the target is T1, CAPRIN-1 protein on the cell surface of …. The experiment in a line: cell-based or functional assay.
On to B1, for which the “cytotoxic activity (ADCC, chromium 51 release) against MCF7, QG56, HCT-116, MIAPaCa-2 and Caki-2” value (“cytotoxic activity” below) was under 5%.

Turning to B2, the “cytotoxic activity” value is under 5%.

B3: the “cytotoxic activity” value is under 5%. On to B4, for which the “cytotoxic activity” value is under 5%.

For the origin of these results see US20140154261A1 (TORAY INDUSTRIES, published 2014).
